Assay: soluble on expression in E. coli; label from the status in PepcDB or PDB records

Sequence | soluble on expression in E. coli
MKKALQVAMFSLFTVIGFNAQANEHHHETMSEAQPQVISATGVVKGIDLESKKITIHHDPIAAVNWPEMTMRFTITPQTKMSEIKTGDKVAFNFVQQGNLSLLQDIKVSQ | soluble
RSLIAGYDPLILDVSHGFNISEFARIANTLDDTTYTSLTPMQLLKAMDTLEGIESLRRFAAILVGGAPLRADDLRAAKELGINVVTTYGSSETSGGCVYNGRPIPGAKVRVV | not soluble
MSLRIALAGAGAFGEKHLDGLKNIDGVEITSIISRTGEQAAAVAAKYGAKHSSTELEDALARDDVDAVILCTPTQMHASQAIACMKAGKHVQVEIPLADSWADSQEVLRVQQETGKVCMVGHTRRFNPSHQFVHNRIKAGEFNVQQMDVQTYFFRRKNINAKGEPRSWTDHLLWHHAAHTVDLFAYQAGRIVKANAVEGPIHPELGIAMDMSIQLKSETGAICTLSLSFNNDGPLGTFFRYIGDTATYIARYDDLVNGKEEPIDVSKVDVSMNGIELQDREFVAAIREGREPNSSVQKVFDCYRVLGELEQQLAKGEGHHHHHH | soluble
MAHHHHHHMIVASSLEVRNYGEWVRQVRAERIIVNCPDEMDVKAMCAWMKRDETKEKQAECWKEVKKHMYLLGPIPRHVFDEEAFTERCGAVKFALQSINDVTVKECFPRGGESPWCSEDPSHKPVRVVREIYEGSVILFNAPMCDCLEERTLKRLPSVAE | not soluble
MGSDKIHHHHHHMINENQHMTEREPSTRRIKSMQTASEVLRELQSQSEATLSDLCGNIDVAKSTLHTYLQTLVAEGFIDKSDGVYRLGLRFIPLGESVRNRIDLYQLGKEEVKRLAEETNEWVHLTVAYRSREVTLYEHNGGETVAVDYQRRTRESPQYLHCTATGKALLAYFDDDRVTETVATEGLVQQTEQTITDPDELREELEEIRARGYAVNDEEEIRGMRSVGAPIQDVDGTVCGAISVTAPKTRLSGDYLYNDLPELVMEAANIIEINLESAAASGE | not soluble
MIFSDWPWRHWRQVRGETIALRLNDEQLNWRELCARVDELASGFAVQGVVEGSGVMLRAWNTPQTLLAWLALLQCGARVLPVNPQLPQPLLEELLPNLTLQFALVPDGENTFPALTSLHIQLVEGAHAATWQPTRLCSMTLTSGSTGLPKAAVHTYQAHLASAQGVLSLIPFGDHDDWLLSLPLFHVSGQGIMWRWLYAGARMTVRDKQPLEQMLAGCTHASLVPTQLWRLLVNRSSVSLKAVLLGGAAIPVELTEQAREQGIRCFCGYGLTEFASTVCAKEADGLADVGSPLPGREVKIVNNEVWLRAASMAEGYWRNGQLVSLVNDEGWYATRDRGEMHNGKLTIVGRLDNLFFSGGEGIQPEEVERVIAAHPAVLQVFIVPVADKEFGHRPVAVMEYDHESVDLSEWVKDKLARFQQPVRWLTLPPELKNGGIKISRQALKEWVQRQQ | soluble
VAIDTVITDMDGTLLVKKGDQIHPLNKEVLINWQADGKKLFLATGRLDLAILPFIHELNIKTPVISCNGGLVRDFTTGEILYKSNIELDLVHTVLETLEPLGVNYHIYTTERIIGPTNTGKIAFFNELNKTLSENEQVPITLTTDPFSVLREGEFPLKVLVIESDLEKRAEIKAALQGLPLSVLASASNLIDIMNEGIDKAKGLTYLADNGYINLNSTIAFGDNENDVGMIELAEIGVAMENGIPLALEKADKIAKHHDIGGLGLFMQEEIL | not soluble
HMNFKMEHQNKRSPLHAAAEAGHVDICHMLVQAGANIDTCSEDQRTPLMEAAENNHLEAVKYLIKAGALVDPKDAEGSTCLHLAAKKGHYEVVQYLLSNGQMDVNCQDDGGWTPMIWATEYKHVDLVKLLLSKGSDINIRDNEENICLHWAAFSGCVDIAEILLAAKCDLHAVNIHGDSPLHIAARENRYDCVVLFLSRDSDVTLKNKEGETPLQCASLNSQVWSALQMSKALQDSA | soluble
MGSDKIHHHHHHMGTKKNFVIDTNVILHDYNCLKNFQENDIHLPLVVLEELDKFKKGNEQINFNAREFVRELDLLTSDELFSQGVSLGEGMGRLFVVPGNVDAPKVHESFPVKKPDHLILAAVEYLAAKYPKTPAILVTKDVNLRMKARSIGITSEDYITDKVSNVDIFEKSNEIFENVDPALIDRIYSSKEGIDLSEFDFKDVIHPNECFVLKSDRNSVLARYNPFTHSICRVTKGRNYGIEPRNAEQSFAFEILNDPNVKLVALTGKAGTGKTLLALAAALGKLTDYKQVLLARPVVALSNKDIGFLPGDAQEKVAPYMQPLFDNLNVIKRQFAANSTEVKRIEDMQKSEQLVIEALAFIRGRSLSEMYCIIDEAQNLTPNEIKTIITRAGEGTKMVFTGDIQQIDQPYLDSQSNGLVYMIDRMKDQNIFAHVNLVKGERSQLSELASNLL | not soluble
MTDNARKEYLNQFFGSKRYLYQDNERVAHIHVVNGTYYFHGHIVPGWQGVKKTFDTAEELETYIKQQDLEYEEQKQLTLFLEHHHHHH | not soluble
KEEELVSDEEIGVKISLTGLKGGHSGVDIHLGRANANKLMFRFLKEAVGFYGARLAWVEGGSLRNAIPREAFAVITIQEEEAEAVWELVSDYQDLFRKEFSGIEENIKFEASRIECPRMIIPEEIQDCLINAVEACVNGPQSMLQDFPGTVESSSNLALITAKEGSISVRFLVRSSSESHKMWVASAIESVFSLAGARVEFDASYNGWQPNIQSHILEVMSKVFEEYYGQKPEVQVMHAGLECGIIQGVMPDMDMISVGPELQSPHSPDERIHIESVARTWEVLVKVLERV | not soluble
LRVSDGIAGKMTVLALKNTDERLRADKSVSVGFVLAALMWPELERHWKSNLQQGLKPAPALSDAINTMRETVERGWGVPQRFSATMREIWMFQPQFENRKGARPHKLFAQARFRAAYDFLLLRAETGNADRALAEWWTAFQTASTEQRSEMTKNEAAARHEKNEGQAKKRRRRRRKPKPKVVGTDWE | not soluble
MSLALSRIDGQDELFVGGLWALRRSDSLTDRRITHVLSLVPFDISSLKNFKDEPWIDYGKDFRHQLIDIDDVEDSDLLIELPKAVRFIEEGLGANYMEHADDDGGVSLEKDVDVVEKKRKKKGGVFVHCAVGKSRSVSAVIAYLLRRYPSRFDPNITPTAISDPSQSTGSETSAEKRSRKETAQEAVHAALTYVRRTRPMAEPNEGFMEQLALWWEMEEGHHHHHH | not soluble
MAACGNPSAAVKFERLPTFAEPTHYNVRLSPCLNQFSFDGHATIDVTIKEATDVLKVHAQSLLIQSVSLITQPGDASKSLETSYDDKLNILTIKLPTTMQPQKVQLDFKFVGELNDKMRGFYRSQYKDKNGTEKFLASTQFESTYARYAFPCFDEPIYKATFDVTLEVENHLTALSNMNVISETPTADGKRKAVTFATSPKMSSYLVAFAVGELEYISAQTKSGVEMRVYTVPGKKEQGQYSLDLSVKCIDWYNEWFDIKYPLPKCDLIAIPDFSMGAMENWGLVTYREIALLVDPGVTSTRQKSRVALVVAHELAHLWFGNLVTMKWWTDLWLKEGFASFMEYMFVGANCPEFKIWLHFLNDELASGMGLDALRNSHPIEVEIDNPNELDEIYDSITYAKSNSVNRMLCYYLSEPVFQKGLRLYLKRFQYSNAVTQDLWTALSEASGQNVNELMSGWTQQMGFPVLKVSQRQDGNNRILTVEQRRFISDGGEDPKNSQWQVPITVAVGSSPSDVKARFLLKEKQQEFTIEGVAPGEWVKLNSGTTGFYRVEYSDEMLTAMLPDIASRRMPVLDRFGLINDLSALLNTGRVSIAQFVQVAASSAKEDEYVVWGAIDEGMSKLLACAREMSEDTLKSAKQLVVKMFEQTGAELGFAEQAGEDSQKMMLRSLVQARLARAGHQPTIDKFTQMFNDFLEKGTPIHPDIRLATFGVVARYGGKEGFDKLMNLRETTTFQEIERQTMVAMSQTPEESLLAQLFEYGFEKNKVRPQDQLYLFLGTGATHMGQQYAWKYFCEHIKEFLDKYGGANSSLFQRCLKFAGESFGNEKRAVEFQDFFCNCNVLSDTDRQTLARPIGQTVEAIRLNARLLESNRQIIENLLKQSNV | not soluble
KDETVGVGVLSEPHARLLEIAKEEVKKQHIELRIVEFTNYVALNEAVMRGDILMNFFQHVPHMQQFNQEHNGDLVSVGNVHVEPLALYSRTYRHVSDFPAGAVIAIPNDSSNEARALRLLEAAGFIRMRAGSGLFATVEDVQQNVRNVVLQEVESALLPRVFDQVDGAVINGNYAIMAGLSARRDGLAVEPDASAYANVLVVKRGNEADARVQAVLRALCGGRVRTYLKERYKGGEVAPAL | soluble
MMEDGAEGEIGDMLSMCNKHPFFDDDDSERFVILYKICTVFDEPVEGKQPSSAVIVYEELAKSGGYCCRPSKMEESYVKVDQVVQEMAKITSKCAIHLSSHALKNTIQIVRTAFSGEYTQNDKDGNVPEGNEVKFDGDETVMKTTVNCEKLVEDINEFMEEDRQMYGALEIQIMEESERNIDGYAYFSFLKFVPCGNIHLRIPPLEGSCTKEVINEVIETIMRNFWNYCGDS | not soluble
MGRSADSFDRALWWGASDEPALAAPPLRGTTDTDVAIVGGGFTGLVTALHLAEAGLAPLVLEARHVGFGASGRNGGQVIPGLKYDPEALLQKFGPDRGRALIDLVGGAADGVFDLIERHRIRCAPRRAGWIQAAHSERALPAVLNRARQWQERGVGVSILSRDEIAARTGTSLYHGGWHDPRAGGLNPLAYARGLGRAAIAAGAHLFEESPALSLIRKGAGWEIRTPEGLVRANRVLIATNAYGEGLLPGLAQSILPVQSMLVATAPLPEDLRARLMPGGVVLSETRKLAFYMRQSDDGRLVLGGRGAVGPMEDGRLMAALEAGLARIFPEAARFGIAQRWSGQLALTLDGLPHLHAPEPGLQVLLGYNGRGIALATALGRMVANHLASGEEPVFPVTPIRPLAWHRLREPVMNAGIRWYWLKDRMGFASLEHHHHHH | not soluble
MGSDKIHHHHHHMNNIYSDIYEKLSTLQWLMKRHQMFCQAESGPFADTSRGQGRILAMLKIQPEIATKELAYLLGIRQQSLNELLNKMEKNGYVERKPSENDKRVMIVHLTEKGKQVQQPKTDYQNIFNCLLPEELLQMSQYLDRIIEAFQLQNGNALEENNMIDWMAQARERMGDEHFEQLMSMRERAFGHMRPPKDIPGAERFSENYNGYVPDRDGFQPRNFRPDIK | not soluble
MSLADIYAFPTGESNDGRPVRPQGVPDEVWAAVESVSTMKRIHDVRYREIPVPSTLADYGIGVEFEAGERALGDAFSAGLGSDAEPRIATGWIMMLYAHELRIDWDSNWRCVAFARLPLETAENDSLTPGMYWDDMCDYFDGIEPDSVSGTVTVTQNTAFGSMAGSTSAGCEIRVSWTPLDGTGPDGTMDAGAQVRSWAAFIRSTIRFEEDDASEGHHHHHH | soluble
MQERHTEQDYRALLIADTPIIDVRAPIEFEQGAMPAAINLPLMDNDERASVGTCYKQQGSDAALALGHKLVAGEIRQQRMYAWRAACLQNPQGILCCARGGQRSHIVQRWLHEAGIDYPLVEGGYKALRQTAIQATIELAQKPIVLIGGCTGSGKTLLVQQQPNGVDLEGLARHRGSAFGRTLQPQLSQASFENLLAAEMLKTDARQDLRLWVLEDESRMIGSNHLPECLRERMTQAAIAVVEDPFEIRLERLNEEYFLRMHHDFTHAYGDEQGWQEYCEYLHHGLSAIKRRLGLQRYNELAAQLDTALTTQLTTGSTDGHLAWLVPLLKEYYDPMYRYQLEKKAEKVVFRGEWAEVAVWVKAQLEHHHHHH | not soluble
MPDFAKQGPIVIGGVGGSGTRLIAEIVMDMGFYLGGMLNQSKDLLYFSLLFKRPTWFSKVVTSNEQEIFRGLKILENRLTTQKELTGKDIKFIEKAAQTYRNGDLLAQKIKKNMLFPDPINRQLYRGWGWKEPNAHLFLPYIHRYFPNGKYIHVIRNGLNMAFSKNQQQLFNWGPLFGVTIPNNPMKIPNASLTYWIKANERAVMYGTEQMKGRFLLIQFDQLCVNPTPQLQKLAEFLAVDDLAIDEWSEKIDPAAAASKYKEADLEHHHHHH | not soluble
MVSQRLHHRCDLVFFVVDSKHDQLNLDRFEFWQLTSQLLVLDVCLFDAFALEHHHHHH | not soluble

— the DeepSol protein solubility set
